Measured values published in patent publication US20120045393A1 (priority 2009, published 2012).
Read-outs that look alike come from different tables or passages of the source. Non-standard residues stand in square brackets, D forms with d. Primed or numbered codes have the meaning given here. azaGly′ = aza-glycine residue at the C-terminus, with NH2; Bpa = N[C@@H](Cc1ccc(C(=O)c2ccccc2)cc1)C(=O)O; d2Nal = N[C@H](Cc1ccc2ccccc2c1)C(=O)O; DO3A10CM = not defined here; Bpa4 = non-natural residue; Damfe4 = not defined here; Ahgly = not defined here; Amfe4 = not defined here; Ampc4 = not defined here; Hypt4 = not defined here; Mogly = not defined here; Ppt4 = not defined here; azaGly = NNC(=O)O; Sar = CNCC(=O)O

B1: BRU-2952 (peptide)
peptide: DO3A10CM-[d2Nal]RWSH[dR]W[Bpa4][Hypt4][azaGly]-NH2
modifications: reading uncertain
B2: BRU-2960 (peptide)
peptide: XRWSXXWXPX
modifications: N-terminal DO3A10CM; Dnal2 at 1; Fur3ala at 5; Darg at 6; Bpa4 at 8; azaGly-NH2 at 10
B3: BRU-3054 (peptide)
peptide: XRWSHXWXPX
modifications: N-terminal DO3A10CM; Dtyr at 1; Darg at 6; Bpa4 at 8; azaGly-NH2 at 10
B4: BRU-2971 (peptide)
peptide: DO3A10CM-[d2Nal]RWSH[dR]W[Bpa]PGQ-NH2
modifications: reading uncertain; also: printed as DO3A10CM-Dnal2-Arg-Trp-Ser-His-Darg-Trp-Bpa4-Pro-Gly-Gln-NH2
B5: BRU-3094 (peptide)
peptide: XRWSHXWXPX
modifications: N-terminal DO3A10CM; Ampha4 at 1; Darg at 6; Bpa4 at 8; azaGly-NH2 at 10
B6: BRU-3057 (peptide)
peptide: XRWSHXWXPX
modifications: N-terminal DO3A10CM; Qua3 at 1; Darg at 6; Bpa4 at 8; azaGly-NH2 at 10
B7: BRU-3069 (peptide)
peptide: XRWSHXWXPX
modifications: N-terminal DO3A10CM; Thy at 1; Darg at 6; Bpa4 at 8; azaGly-NH2 at 10
B8: BRU-3020 (peptide)
peptide: XRWSHXWXP
modifications: N-terminal DO3A10CM; Dnal2 at 1; Darg at 6; Bpa4 at 8; C-terminal Mo2abn at 10
B9: BRU-3056 (peptide)
peptide: XRWSHXWXPX
modifications: N-terminal DO3A10CM; Apsp at 1; Darg at 6; Bpa4 at 8; azaGly-NH2 at 10
B10: BRU-3104 (peptide)
peptide: XRXSHXWXPX
modifications: N-terminal DO3A10CM; Dnal2 at 1; Nal1 at 3; Darg at 6; Bpa4 at 8; azaGly-NH2 at 10
B11: BRU-2439 (peptide)
peptide: XHWSHXWYPX
HELM: PEPTIDE1{[Sar].H.W.S.H.[dR].W.Y.P.[O=C(NN[*:1])[*:2]].[am]}$$$$V2.0; N-terminus assumed
SMILES: CNCC(=O)N[C@@H](Cc1c[nH]cn1)C(=O)N[C@@H](Cc1c[nH]c2ccccc12)C(=O)N[C@@H](CO)C(=O)N[C@@H](Cc1c[nH]cn1)C(=O)N[C@H](CCCNC(=N)N)C(=O)N[C@@H](Cc1c[nH]c2ccccc12)C(=O)N[C@@H](Cc1ccc(O)cc1)C(=O)N1CCC[C@H]1C(=O)NNC(N)=O
B12: BRU-2961 (peptide)
peptide: XRWSXXWXPX
modifications: N-terminal DO3A10CM; Dnal2 at 1; Orn at 5; Darg at 6; Bpa4 at 8; azaGly-NH2 at 10
B13: BRU-3055 (peptide)
peptide: XRWSHXWXPX
modifications: N-terminal DO3A10CM; Atdc2 at 1; Darg at 6; Bpa4 at 8; azaGly-NH2 at 10
B14: BRU-2959 (peptide)
peptide: XRWSRXWXPX
modifications: N-terminal DO3A10CM; Dnal2 at 1; Darg at 6; Bpa4 at 8; azaGly-NH2 at 10
B15: BRU-2953 (peptide)
peptide: DO3A10CM-[d2Nal]RWSH[dR]W[Bpa4][Ppt4][azaGly]-NH2
modifications: reading uncertain
B16: BRU-3021 (peptide)
peptide: XRWSHXWXP
modifications: N-terminal DO3A10CM; Dnal2 at 1; Darg at 6; Bpa4 at 8; C-terminal Az23m2po-NH2 at 10
B17: BRU-3070 (peptide)
peptide: XRWSHXWXPX
modifications: N-terminal DO3A10CM; Bip at 1; Darg at 6; Bpa4 at 8; azaGly-NH2 at 10
B18: BRU-2876 (peptide)
peptide: DO3A10CM-G[Ahgly]HWSH[dR]W[Bpa]P[azaGly]-NH2
modifications: reading uncertain
B19: BRU-3049 (peptide)
peptide: XXWSHXWXPX
modifications: N-terminal DO3A10CM; Dnal2 at 1; Darg at 2; Darg at 6; Bpa4 at 8; azaGly-NH2 at 10
B20: BRU-2985 (peptide)
peptide: XRWSHXWXP
modifications: N-terminal DO3A10CM; Dnal2 at 1; Darg at 6; Bpa4 at 8; C-terminal A1gua5o3pt at 10
B21: BRU-2969 (peptide)
peptide: DO3A10CM-[d2Nal]RWSH[dR]W[Bpa4]PGR-NH2
modifications: reading uncertain
B22: BRU-3068 (peptide)
peptide: GXRWSHXWXPX
modifications: N-terminal DO3A10CM; Gly linker before 1; Dtpi at 1; Darg at 6; Bpa4 at 8; azaGly-NH2 at 10
B23: BRU-2983 (peptide)
peptide: XRWSHXWXP
modifications: N-terminal DO3A10CM; Dnal2 at 1; Darg at 6; Bpa4 at 8; C-terminal Pheol at 10
B24: BRU-3062 (peptide)
peptide: DO3A10CM-[d2Nal]RWSH[dR]W[Bpa][Ampc4][azaGly′]-NH2
modifications: reading uncertain; also: printed as DO3A10CM-Dnal2-Arg-Trp-Ser-His-Darg-Trp-Bpa4-Ampc4-azaGly-NH2
B25: BRU-3105 (peptide)
peptide: XRXSHXWXPX
modifications: N-terminal DO3A10CM; Dnal2 at 1; Nal2 at 3; Darg at 6; Bpa4 at 8; azaGly-NH2 at 10
B26: BRU-2955 (peptide)
peptide: XRWXHXWXPX
modifications: N-terminal DO3A10CM; Dnal2 at 1; Dap at 4; Darg at 6; Bpa4 at 8; azaGly-NH2 at 10
B27: BRU-3007 (peptide)
peptide: XRWSHXWXP
modifications: Sar at 1; Darg at 6; Bpa4 at 8; C-terminal Da15o3pt at 10
B28: BRU-2984 (peptide)
peptide: XRWSHXWXP
modifications: N-terminal DO3A10CM; Dnal2 at 1; Darg at 6; Bpa4 at 8; C-terminal Gua (guanidine) at 10
B29: BRU-3071 (peptide)
peptide: XRWSHXWXPX
modifications: N-terminal DO3A10CM; Dbpa4 at 1; Darg at 6; Bpa4 at 8; azaGly-NH2 at 10
B30: BRU-3107 (peptide)
peptide: XRXSHXWXPX
modifications: N-terminal DO3A10CM; Dnal2 at 1; Amfe4 at 3; Darg at 6; Bpa4 at 8; azaGly-NH2 at 10
B31: BRU-3095 (peptide)
peptide: DO3A10CM-[Damfe4][Damfe4]WSH[dR]W[Bpa]P[azaGly]-NH2
modifications: reading uncertain
B32: BRU-2734 (peptide)
peptide: XHWSHXWXPX
modifications: Mephe at 1; Darg at 6; Bpa4 at 8; azaGly-NH2 at 10
B33: BRU-3115 (peptide)
peptide: XRWXHXWXPX
modifications: N-terminal DO3A10CM; Dnal2 at 1; Amfe4 at 4; Darg at 6; Bpa4 at 8; azaGly-NH2 at 10
B34: BRU-2796 (peptide)
peptide: DO3A10CM-G[Mogly]HWSH[dR]W[Bpa]P[azaGly]-NH2
modifications: reading uncertain
B35: BRU-3063 (peptide)
peptide: XRWSHXWXPX
modifications: N-terminal DO3A10CM; Datdc2 at 1; Darg at 6; Bpa4 at 8; azaGly-NH2 at 10
B36: BRU-3006 (peptide)
peptide: XRWSHXWXP
modifications: N-terminal DO3A10CM; Dnal2 at 1; Darg at 6; Bpa4 at 8; C-terminal Ap (aminophenyl) at 10
B37: BRU-3053 (peptide)
peptide: GXRWSHXWXPX
modifications: N-terminal DO3A10CM; Gly linker before 1; Tpi at 1; Darg at 6; Bpa4 at 8; azaGly-NH2 at 10

Assays:
[1] = tested on: LHRH binding sites on human ovarian cancer cells (EFO-27);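 also: Cell-associated radioactivity on confluent EFO-27 monolayers in 96-well plates, measured by microplate scintillation counting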
[2] = tested on: EFO-27 cells; experiment: Internalization/efflux studies in EFO-27 cells; assay type: cell-based, human; conditions: for Cell associated activity at 0 h % Intern / Cell associated activity at 2 h % Intern: internalized; for Cell associated activity at 0 h % Memb / Cell associated activity at 2 h % Memb: membrane bound; for Bound %: of added; for Bound: per well
Experimental: Internalization/Efflux Studies: The internalization and efflux studies were carried out following the general procedure. Basically, ^177Lu-LHRH II or ^125I-LHRH II ([^125I-Tyr^8]BRU-2477) (75 uL, 3.0 μCi/mL) was added to the EFO-27 or PC-3 cells. The cells were incubated for 40 min at 37° C. The unbound radioactivity was washed off (4×). Following addition of fresh medium, the cells were further incubated for up to 2 h. At various time points (15, 30, 60 & 120 min) the distribution of radioactivity (membrane-bound, internalized, and efflux) was determined
The internalization and efflux of several Lu-177 labeled LHRH II analogs in EFO-27 cells have been investigated. Basically, following pre-incubation of cells with ^177Lu-LHRH II samples, the binding buffer containing the ^177Lu was replaced with fresh media without complex. The extent of initial internalization (T=0), the amount of radioactive material that remained internalized and the efflux at 0-120 min were determined. The results are shown in FIGS. 21a-f and 22a-c and in Table 25.

[3] = biological target: LHRH receptor (LHRH binding sites) on EFO-27 human ovarian cancer cells (human); experiment: competition with [125I-Tyr8]BRU-2477, EFO-27 cells
[4] = biological target: LHRH binding sites on EFO-27 human ovarian cancer cells (human); experiment: competition with [125I-Tyr8]BRU-2477 on EFO-27 cells

| Molecule | EC50 [3] | EC50 [4] | further results |
| --- | --- | --- | --- |
| BRU-2756: DO3A10CM LHRH-II analog prepared in house for Lu labeling (DO3A10CM-[Sar][Amfe4]WSH[dR]W[Bpa4]P[azaGly]-NH2; reading uncertain) | – | – | EC50 ([1]; Table 5: modifications of amino acids at positions 1 and 2, in vitro binding on EFO-27 cells): 280 nM; Cell associated activity at 0 h % Efflux [2]: 7.7%; Cell associated activity at 0 h % Intern [2]: 42.0%; Cell associated activity at 0 h % Memb [2]: 51.5%; Cell associated activity at 2 h % Efflux [2]: 82.5%; Cell associated activity at 2 h % Intern [2]: 9.9%; Cell associated activity at 2 h % Memb [2]: 7.4%; Bound % [2]: 5.10%; Bound [2]: 10.2 fmol |
| N=C(N)NCCC[C@H](NC(=O)[C@@H](Cc1ccc2ccccc2c1)NC(=O)CN1CCN(CC(=O)O)CCN(CC(=O)O)CCN(CC(=O)O)CC1)C(=O)N[C@@H](Cc1c[nH]c2ccccc12)C(=O)N[C@@H](CO)C(=O)N[C@@H](Cc1c[nH]cn1)C(=O)N[C@H](CCCNC(=N)N)C(=O)N[C@@H](Cc1c[nH]c2ccccc12)C(=O)N[C@@H](Cc1ccc(C(=O)c2ccccc2)cc1)C(=O)N1CCC[C@H]1C(=O)NCCOCCN [BRU-2968, DO3A10CM-Dna12-Arg-Trp-Ser-His-Darg-Trp-Bpa4-Pro-Da15o3pt] | – | – | EC50 [1]: 240 nM; Cell associated activity at 0 h % Efflux [2]: 4.9%; Cell associated activity at 0 h % Intern [2]: 14.1%; Cell associated activity at 0 h % Memb [2]: 80.8%; Cell associated activity at 2 h % Efflux [2]: 52.9%; Cell associated activity at 2 h % Intern [2]: 9.0%; Cell associated activity at 2 h % Memb [2]: 38.1%; Bound % [2]: 23.59%; Bound [2]: 68.8 fmol |
| B1 | 280 nM | 280 nM | – |
| B2 | 400 nM | 400 nM | – |
| B3 | 430 nM | 430 nM | – |
| B4 | 490 nM | 490 nM | – |
| B5 | 350 nM | 350 nM | – |
| B6 | 380 nM | 380 nM | – |
| B7 | 380 nM | 380 nM | – |
| B8 | 450 nM | 450 nM | – |
| B9 | 440 nM | 440 nM | – |
| B10 | 250 nM | 250 nM | – |
| B11 | 250 nM | 250 nM | – |
| B12 | 350 nM | 350 nM | – |
| B13 | 390 nM | 390 nM | – |
| B14 | 250 nM | 250 nM | – |
| B15 | 830 nM | 650 nM | factor of reduced binding against BRU-2813 [4]: 2 fold |
| B16 | 500 nM | 500 nM | – |
| B17 | 280 nM | 280 nM | – |
| B18 | 500 nM | 500 nM | – |

| Molecule | EC50 [3] | EC50 [4] | further results |
| --- | --- | --- | --- |
| B19 | 360 nM | 360 nM | – |
| B20 | 460 nM | 460 nM | – |
| B21 | 240 nM | 240 nM | – |
| B22 | 240 nM | 240 nM | – |
| B23 | 450 nM | 450 nM | – |
| B24 | 320 nM | 320 nM | – |
| B25 | 220 nM | 220 nM | – |
| B26 | 410 nM | 410 nM | – |
| B27 | 220 nM | 220 nM | – |
| B28 | 400 nM | 400 nM | – |
| B29 | 310 nM | 310 nM | – |
| B30 | 380 nM | 380 nM | – |
| B31 | 290 nM | 290 nM | – |
| B32 | 150 nM | 150 nM | – |
| B33 | 150 nM | 150 nM | – |
| B34 | 340 nM | 340 nM | – |
| B35 | 470 nM | 470 nM | – |
| B36 | 420 nM | 420 nM | – |
| B37 | 320 nM | 320 nM | – |
